Literature values as cited in paper PMC10772121.

Experiments:
[1] = biological target: KIR2DL2 (Homo sapiens) (UniProt P43627); experiment: ELISA
[2] = biological target: KIR2DS4 (Homo sapiens) (UniProt P43632); experiment: ELISA
Sequence of KIR2DS4 (Homo sapiens) (P43632 22-245): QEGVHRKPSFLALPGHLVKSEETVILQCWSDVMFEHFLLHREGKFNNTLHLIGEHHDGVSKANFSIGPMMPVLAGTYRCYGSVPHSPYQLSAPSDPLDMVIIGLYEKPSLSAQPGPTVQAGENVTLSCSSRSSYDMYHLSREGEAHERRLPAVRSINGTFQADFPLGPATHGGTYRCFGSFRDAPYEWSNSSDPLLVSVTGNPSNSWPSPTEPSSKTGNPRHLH

Sequence of KIR2DL2 (Homo sapiens) (P43627 22-245): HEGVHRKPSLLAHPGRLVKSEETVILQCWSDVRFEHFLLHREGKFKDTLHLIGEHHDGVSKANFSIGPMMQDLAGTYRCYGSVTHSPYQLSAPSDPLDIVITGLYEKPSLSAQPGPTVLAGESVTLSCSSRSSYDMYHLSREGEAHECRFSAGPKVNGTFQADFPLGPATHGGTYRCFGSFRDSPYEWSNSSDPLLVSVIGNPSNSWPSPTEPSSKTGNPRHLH

In the case of Lirilumab, the Kd [1] is given as 0.06 nM and the Kd [2] is given as 20 nM.
